B1: Twister Ribozyme (parent)
chain: AACACUGCCAAUGCCGGUCCCAAGCCCGGAUAAAAGUGGAGGGGGCGG

Variants of: B1
Test: self-cleavage, relative activity (ratio to wild type); higher = more cleavage; co-transcriptional

Row | Variant | self-cleavage
1 | AACACUGCCAAUUCCGGUCCCAACCCCGGAUAAAAGUGGAGGGGGCGG [G13U G24C] | 0.0723
2 | AACACUGCCAAUUCCGGUCCCAAGCCCAGAUAAAAGUGGAGGGGGCGG [G13U G28A] | 0.543
3 | AACACUGCCAAUUCCGGUCCCAAGCCCUGAUAAAAGUGGAGGGGGCGG [G13U G28U] | 0.466
4 | AACACUGCCAAUUCCGGUCCCAAGCCCGAAUAAAAGUGGAGGGGGCGG [G13U G29A] | 0.368
5 | AACACUGCCAAUUCCGGUCCCAAGCCCGGAUAAAAAUGGAGGGGGCGG [G13U G36A] | 0.13
6 | AACACUGCCAAUUCCGGUCCCAAGCCCGGAUAAAACUGGAGGGGGCGG [G13U G36C] | 0.0949
7 | AACACUGCCAAUUCCGGUCCCAAGCCCGGAUAAAAGUCGAGGGGGCGG [G13U G38C] | 0.6
8 | AACACUGCCAAUUCCGGUCCCAAGCCCGGAUAAAAGUUGAGGGGGCGG [G13U G38U] | 0.303
9 | AACACUGCCAAUUCCGGUCCCAAGCCCGGAUAAAAGUGCAGGGGGCGG [G13U G39C] | 0.11
10 | AACACUGCCAAUUCCGGUCCCAAGCCCGGAUAAAAGUGUAGGGGGCGG [G13U G39U] | 0.0998
11 | AACACUGCCAAUUCCGGUCCCAAGCCCGGAUAAAAGUGGAAGGGGCGG [G13U G41A] | 0.0904
12 | AACACUGCCAAUUCCGGUCCCAAGCCCGGAUAAAAGUGGAUGGGGCGG [G13U G41U] | 0.104
13 | AACACUGCCAAUUCCGGUCCCAAGCCCGGAUAAAAGUGGAGGAGGCGG [G13U G43A] | 0.143
14 | AACACUGCCAAUUCCGGUCCCAAGCCCGGAUAAAAGUGGAGGGCGCGG [G13U G44C] | 0.488
15 | AACACUGCCAAUUCCGGUCCCAAGCCCGGAUAAAAGUGGAGGGGACGG [G13U G45A] | 0.308
16 | AACACUGCCAAUUCCGGUCCCAAGCCCGGAUAAAAGUGGAGGGGGCUG [G13U G47U] | 0.197
17 | AACACUGCCAAUUCCGGUCCCAAGCCCGGAUAAAAGUGGAGGGGGCGC [G13U G48C] | 0.456
18 | AACACUGCCAAUUCCGGACCCAAGCCCGGAUAAAAGUGGAGGGGGCGG [G13U U18A] | 0.0935
19 | AACACUGCCAAUUCCGGCCCCAAGCCCGGAUAAAAGUGGAGGGGGCGG [G13U U18C] | 0.0744
20 | AACACUGCCAAUUCCGGGCCCAAGCCCGGAUAAAAGUGGAGGGGGCGG [G13U U18G] | 0.0548
21 | AACACUGCCAAUUCCGGUCCCAAGCCCGGACAAAAGUGGAGGGGGCGG [G13U U31C] | 0.639
22 | AACACUGCCAAUUCCGGUCCCAAGCCCGGAUAAAAGAGGAGGGGGCGG [G13U U37A] | 0.133
23 | AACACUGCCAAUUCCGGUCCCAAGCCCGGAUAAAAGGGGAGGGGGCGG [G13U U37G] | 0.119
24 | AACACUGCCAAUGACGGUCCCCAGCCCGGAUAAAAGUGGAGGGGGCGG [C14A A22C] | 1.09
25 | AACACUGCCAAUGACGGUCCCGAGCCCGGAUAAAAGUGGAGGGGGCGG [C14A A22G] | 0.407
26 | AACACUGCCAAUGACGGUCCCUAGCCCGGAUAAAAGUGGAGGGGGCGG [C14A A22U] | 0.657
27 | AACACUGCCAAUGACGGUCCCAGGCCCGGAUAAAAGUGGAGGGGGCGG [C14A A23G] | 0.525

Row | Variant | self-cleavage
28 | AACACUGCCAAUGACGGUCCCAUGCCCGGAUAAAAGUGGAGGGGGCGG [C14A A23U] | 0.508
29 | AACACUGCCAAUGACGGUCCCAAGCCCGGUUAAAAGUGGAGGGGGCGG [C14A A30U] | 0.968
30 | AACACUGCCAAUGACGGUCCCAAGCCCGGAUGAAAGUGGAGGGGGCGG [C14A A32G] | 0.857
31 | AACACUGCCAAUGACGGUCCCAAGCCCGGAUAUAAGUGGAGGGGGCGG [C14A A33U] | 0.908
32 | AACACUGCCAAUGACGGUCCCAAGCCCGGAUAACAGUGGAGGGGGCGG [C14A A34C] | 0.426
33 | AACACUGCCAAUGACGGUCCCAAGCCCGGAUAAGAGUGGAGGGGGCGG [C14A A34G] | 0.88
34 | AACACUGCCAAUGACGGUCCCAAGCCCGGAUAAACGUGGAGGGGGCGG [C14A A35C] | 0.863
35 | AACACUGCCAAUGACGGUCCCAAGCCCGGAUAAAUGUGGAGGGGGCGG [C14A A35U] | 0.789
36 | AACACUGCCAAUGACGGUCCCAAGCCCGGAUAAAAGUGGUGGGGGCGG [C14A A40U] | 0.143
37 | AACACUGCCAAUGAAGGUCCCAAGCCCGGAUAAAAGUGGAGGGGGCGG [C14A C15A] | 0.885
38 | AACACUGCCAAUGAGGGUCCCAAGCCCGGAUAAAAGUGGAGGGGGCGG [C14A C15G] | 0.31
39 | AACACUGCCAAUGAUGGUCCCAAGCCCGGAUAAAAGUGGAGGGGGCGG [C14A C15U] | 0.746
40 | AACACUGCCAAUGACGGUCUCAAGCCCGGAUAAAAGUGGAGGGGGCGG [C14A C20U] | 0.977
41 | AACACUGCCAAUGACGGUCCUAAGCCCGGAUAAAAGUGGAGGGGGCGG [C14A C21U] | 0.138
42 | AACACUGCCAAUGACGGUCCCAAGACCGGAUAAAAGUGGAGGGGGCGG [C14A C25A] | 0.242
43 | AACACUGCCAAUGACGGUCCCAAGGCCGGAUAAAAGUGGAGGGGGCGG [C14A C25G] | 0.657
44 | AACACUGCCAAUGACGGUCCCAAGUCCGGAUAAAAGUGGAGGGGGCGG [C14A C25U] | 0.699
45 | AACACUGCCAAUGACGGUCCCAAGCGCGGAUAAAAGUGGAGGGGGCGG [C14A C26G] | 0.118
46 | AACACUGCCAAUGACGGUCCCAAGCCUGGAUAAAAGUGGAGGGGGCGG [C14A C27U] | 0.75
47 | AACACUGCCAAUGACGGUCCCAAGCCCGGAUAAAAGUGGAGGGGGAGG [C14A C46A] | 0.773
48 | AACACUGCCAAUGACGGUCCCAAGCCCGGAUAAAAGUGGAGGGGGUGG [C14A C46U] | 0.827
49 | AACACUGCCAAUGACAGUCCCAAGCCCGGAUAAAAGUGGAGGGGGCGG [C14A G16A] | 0.641
50 | AACACUGCCAAUGACUGUCCCAAGCCCGGAUAAAAGUGGAGGGGGCGG [C14A G16U] | 0.394
51 | AACACUGCCAAUGACGUUCCCAAGCCCGGAUAAAAGUGGAGGGGGCGG [C14A G17U] | 0.361
52 | AACACUGCCAAUGACGGUCCCAAGCCCAGAUAAAAGUGGAGGGGGCGG [C14A G28A] | 0.818
53 | AACACUGCCAAUGACGGUCCCAAGCCCCGAUAAAAGUGGAGGGGGCGG [C14A G28C] | 0.757
54 | AACACUGCCAAUGACGGUCCCAAGCCCUGAUAAAAGUGGAGGGGGCGG [C14A G28U] | 0.854
